These results are taken from patent publication US20190055304A1 (published 2019).

For orientation: EC50 means the midpoint of the concentration-response curve.

In test [1] the target is T1, DNABII protein from Pseudomonas aeruginosa (IHF-alpha by the legend of FIGS. 7A-7C) (Pseudomonas aeruginosa, UniProt Q51472 2-100).
T1 construct: mature; also called Pa; P. aeruginosa; not shown: poly-histidine tag
T1 sequence: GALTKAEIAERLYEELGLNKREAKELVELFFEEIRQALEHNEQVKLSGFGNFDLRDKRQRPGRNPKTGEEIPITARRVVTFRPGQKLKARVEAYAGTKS
As to the kind of experiment: ELISA at pH 2.5; printed as 'Affinity (nM)'. (An ELISA detects its analyte on a solid surface through an enzyme-linked reagent.)

In test [2] the target is T2, DNABII protein from Klebsiella pneumoniae (IHF; IHF-alpha by the legend of FIGS. 7A-7C) (Klebsiella pneumoniae, UniProt A6TAI1 1-99).
T2 construct: also called Kp; K. pneumoniae
T2 sequence: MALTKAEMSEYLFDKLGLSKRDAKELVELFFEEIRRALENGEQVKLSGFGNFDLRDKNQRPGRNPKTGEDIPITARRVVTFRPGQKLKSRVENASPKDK
As to the kind of experiment: ELISA at pH 2.5; printed as 'Affinity (nM)'.

The target in test [3] is T3, full length DNABII protein, HU-beta, from Staphylococcus aureus (Staphylococcus aureus, UniProt Q5HFV0 1-90).
T3 construct: mature; also called HU Sa; HU-beta of S. aureus; not shown: poly-histidine tag
T3 sequence: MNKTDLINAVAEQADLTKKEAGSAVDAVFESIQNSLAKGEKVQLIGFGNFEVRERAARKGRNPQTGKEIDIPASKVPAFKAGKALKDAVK
Put plainly: ELISA at pH 2.5; printed as 'Affinity (nM)'.

For test [4], the target named is T1, DNABII protein from Pseudomonas …. As to the kind of experiment: ELISA at pH 3.5; printed as 'Affinity (nM)'.
The target in test [5] is T2, DNABII protein from Klebsiella …. Put plainly: ELISA at pH 3.5; printed as 'Affinity (nM)'.
For test [6], the target named is T3, full length DNABII protein, HU-beta, …. Put plainly: ELISA at pH 3.5; printed as 'Affinity (nM)'.
The target of test [7] is T1, DNABII protein from Pseudomonas …. Put plainly: ELISA at pH 4.5; printed as 'Affinity (nM)'.
The target in test [8] is T2, DNABII protein from Klebsiella …. Put plainly: ELISA at pH 4.5; printed as 'Affinity (nM)'.
Test [9] deals with T3, full length DNABII protein, HU-beta, …. As to the kind of experiment: ELISA at pH 4.5; printed as 'Affinity (nM)'.
Test [10] deals with T1, DNABII protein from Pseudomonas …. As to the kind of experiment: ELISA at pH 5.5; printed as 'Affinity (nM)'.
The target of test [11] is T2, DNABII protein from Klebsiella …. As to the kind of experiment: ELISA at pH 5.5; printed as 'Affinity (nM)'.
Test [12] deals with T3, full length DNABII protein, HU-beta, …. As to the kind of experiment: ELISA at pH 5.5; printed as 'Affinity (nM)'.
Test [13] concerns the target T1, DNABII protein from Pseudomonas …. As to the kind of experiment: ELISA at pH 6.5; printed as 'Affinity (nM)'.
Test [14] has as its target T2, DNABII protein from Klebsiella …. As to the kind of experiment: ELISA at pH 6.5; printed as 'Affinity (nM)'.
For test [15], the target named is T3, full length DNABII protein, HU-beta, …. Put plainly: ELISA at pH 6.5; printed as 'Affinity (nM)'.
Test [16] deals with T1, DNABII protein from Pseudomonas …. As to the kind of experiment: ELISA at pH 7.5; printed as 'Affinity (nM)'.
Test [17] deals with T2, DNABII protein from Klebsiella …. As to the kind of experiment: ELISA at pH 7.5; printed as 'Affinity (nM)'.
Test [18] concerns the target T3, full length DNABII protein, HU-beta, …. Put plainly: ELISA at pH 7.5; printed as 'Affinity (nM)'.
Test [19] concerns the target T4, DNABII protein from Haemophilus influenzae (IHF) (Haemophilus influenzae).
T4 construct: mature; also called H. influenzae; IHF from Haemophilus influenzae
As to the kind of experiment: adsorption ELISA, antigen coated; printed as 'Affinity (pM)', half-maximal binding concentration.

The target of test [20] is T5, DNABII protein from Acinetobacter baumannii (Acinetobacter baumannii).
T5 construct: mature
Described as above.

Test [21] addresses T3, full length DNABII protein, HU-beta, …. Put plainly: adsorption ELISA, antigen coated; given as 'affinity', estimated as half-maximal binding concentration.
Test [22] has as its target peptide 6, SGSG … (Staphylococcus aureus). As to the kind of experiment: ELISA, biotinylated peptides on streptavidin coated plates.
The target in test [23] is peptide 12, SGSG … (Staphylococcus aureus). Described as above.
The target of test [24] is peptide 13, SGSG … (Staphylococcus aureus). Described as above.
Test [25] deals with peptide 14, SGSG … (Staphylococcus aureus). The test is described as above.
For test [26], the target named is peptide 18, SGSG … (Staphylococcus aureus). Described as above.
In test [27] the target is peptide 19, SGSG … (Staphylococcus aureus). The test is described as above.
Test [28] has as its target peptide 20, SGSG … (Staphylococcus aureus). The description is as above.
In another test the target is peptide 26, […] (Staphylococcus aureus). The description is as above.

T5 sequence (B7I698 whole entry): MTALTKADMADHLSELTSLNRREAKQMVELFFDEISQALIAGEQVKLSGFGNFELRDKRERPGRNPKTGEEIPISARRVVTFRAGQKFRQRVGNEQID
T4 sequence (P43723 whole entry): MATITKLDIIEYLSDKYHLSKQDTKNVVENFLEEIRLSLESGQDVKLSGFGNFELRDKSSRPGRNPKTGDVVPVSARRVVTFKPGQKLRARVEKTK

B1: TRL1068 (antibody, V domains shown)
VH: QVQLVESGPGLVKPSETLSLTCRVSGDSNRPSYWSWIRQAPGKAMEWIGYVYDSGVTIYNPSLKGRVTISLDTSKTRFSLKLTSVIAADTAVYYCARERFDRTSYKSWWGQGTQVTVSS
VL: DIVLTQAPGTLSLSPGDRATLSCRASQRLGGTSLAWYQHRSGQAPRLILYGTSNRATDTPDRFSGSGSGTDFVLTISSLEPEDFAVYYCQQYGSPPYTFGQGTTLDIK
B1: the EC50 turned out to be 2.1 nM in [1]; 2.6 nM in [2]; 3.5 nM in test [3]; 0.26 nM in [4]; 3 nM in [5]; 0.36 nM in test [6]. Further, the EC50 in test [7] stood at 0.009 nM; in test [8], 0.05 nM; in test [9] it was 0.012 nM; in [10], 0.006 nM; in [11] it was 0.009 nM; in test [12] it was 0.012 nM. The EC50 in test [13] was determined as 0.005 nM; in [14], 0.006 nM; in test [15], 0.012 nM; in test [16], 0.005 nM; in test [17] it was 0.006 nM; in test [18], 0.01 nM. The EC50 in test [19] was determined as 5 nM; in test [20] it was 0.01 nM.

B2: TRL1337 (antibody, V domains shown)
VH: QVQLLESGPGLVKPSETPSLTCTVSGGSIRSYYWSWIRQPPGKGLEWIGYIYYSGSTNYNPSLKSRVTISVDMSKNQFSLKLSSVTAADTAMYYCARVYGGSGSYDFDYWGQGTLVTVSS
VL: DIVLTQSPSASGSPGQSVTISCTGTSSDVGGYNYVSWYQQLPGKAPKLMIYEVTKRPSGVPDRFSGSKSGNTASLTVSGLQAEDEADYYCSSFAGSNNHVVFGGGTKLTVL
For B2, the EC50 in [21] was 6 nM.

B3: TRL1361 (antibody, V domains shown)
VH: QVQLVESGGGLAQPGGSLRLSCAASGFIFNTYAMGWVRQAPGKGLEWVSTVSAPGAGTYYTDSVKGRFIISRDNSKNILYLQMNRLRVEDTAVYYCARDQGGPAVAGARIFDYWGQGALVTVSS
VL: DIVLTQSPLSLSVTPGQPASISCKSSQSLLRSDGKTYLCWYLQKPGQPPQLLIYEVSNRVSGVPDRFSGSGSGTDFTLKISRVEAEDVGVYYCMQSIQLRTFGQGTKVEIKR
For the molecule B3, the EC50 in [21] was 6.6 nM.

B4: TRL1335 (antibody, V domains shown)
VH: QVQLVESGAEVKKPGESLKISCKGSGYNFTSYWIGWVRQMPGKGLEWMGVIYPDDSDTRYSPSFKGQVTISADKSISTAFLQWSSLKASDTAVYHCARPPDSWGQGTLVTVSS
VL: DIVMTQSPATLSVSPGERATLSCRASQSVSSNLAWYQQKPGLAPRLLIVGASNRATGIPARFSGSGSGTEFTLTISSLQSEDFAFYYCQQYNNWPFTFGPGTKVDVKR
As for B4, the binding result in test [22], in test [23], in test [24], in [25], in test [26] and in [27] was “no binding” throughout. The binding result was “no binding” in test [28] and “no binding” in the test with peptide 26, […].

B5: TRL1330 (antibody, V domains shown)
VH: QVQLVESGTEVKNPGASVKVSCTASGYKFDEYGVSWVRQSPGQGLEWMGWISVYNGKTNYSQNFQGRLTLTTETSTDTAYMELTSLRPDDTAVYYCATDKNWFDPWGPGTLVTVSS
VL: DIVLTQSPSASGSPGQSITISCTGTNTDYNYVSWYQHHPGKAPKVIIYDVKKRPSGVPSRFSGSRSGNTATLTVSGLQTEDEADYYCVSYADNNHYVFGSGTKVTVL
As for B5, the results for the EC50 in test [19] and in test [20] were 0.026 nM and 0.017 nM, respectively.

B6: TRL1338 (antibody, V domains shown)
VH: QLTLRESGPTLVKPTQTLTLTCTFSGFSLSTNGVGVGWIRQPPGKALEWLAIIYWDDDKRYSPSLKSRLTITKDTSKNQVVLTLTNMDPVDTGTYYCAHILGASNYWTGYLRYYFDYWGQGTLVTVST
VL: DIEMTQSPSVSVSPGQTARITCSGEPLAKQYAYWYQQKSGQAPVVVIYKDTERPSGIPERFSGSSSGTTVTLTISGVQAEDEADYHCESGDSSGTYPVFGGGTKLTVL
Consider B6, for which the EC50 in test [21] is 42 nM.
